# Target: T1, fused protein GST-GPC3 (GST and human glypican-3 peptide of SEQ ID NO: 16) (human, UniProt P51654 524-563)
# T1 construct: It was immobilized on a BIACORE chip; also called GPC3 peptide; not shown: GST (glutathione S-transferase)
# Experiment: SPR (BIACORE 3000), CHO culture supernatant over immobilized GST-GPC3
# Procedure: This was introduced into 2×10⁶/0.6 ml PBS(−) of CHO cells (strain DXB11S) according to an electroporation method under a condition of 1.5 kV and 25 uF. The cells were incubated in a 8% CO₂ incubator at 37° C. The cells were screened in CHO-S-SFMII medium (Invitrogen) containing 400 μg/ml of geneticin. Selected cells were inoculated into a CHO-S-SFMII medium containing 400 μg/ml geneticin in a 96-well plate at 0.4 cells/100 μl/well, and the cells were cloned according to a limiting dilution method. The culture supernatant was analyzed with BIACORE 3000. The antigen was quantified using a chip with fused protein GST-GPC3 (antigen GST and human glypican-3 shown by SEQ ID NO:16) immobilized thereon, and high-expression cells were selected.
# T1 sequence (P51654 524-563 limits assumed): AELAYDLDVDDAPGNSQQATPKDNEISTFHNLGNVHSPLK
row,binding result,Binder
1,binds,"Fc-modified humanized anti-GPC3 antibody V209 (S239D/A330L/I332E) (antibody, human IgG1, G1m(1) allotype) heavy: QVQLVQSGAEVKKPGASVKVSCKASGYTFTDYEMHWVRQAPGQGLEWMGALDPKTGDTAYSQKFKGRVTLTADKSTSTAYMELSSLTSEDTAVYYCTRFYSYTYWGQGTLVTVSSASTKGPSVFPLAPSSKSTSGGTAALGCLVKDYFPEPVTVSWNSGALTSGVHTFPAVLQSSGLYSLSSVVTVPSSSLGTQTYICNVNHKPSNTKVDKKVEPKSCDKTHTCPPCPAPELLGGPDVFLFPPKPKDTLMISRTPEVTCVVVDVSHEDPEVKFNWYVDGVEVHNAKTKPREEQYNSTYRVVSVLTVLHQDWLNGKEYKCKVSNKALPLPEEKTISKAKGQPREPQVYTLPPSRDELTKNQVSLTCLVKGFYPSDIAVEWESNGQPENNYKTTPPVLDSDGSFFLYSKLTVDKSRWQQGNVFSCSVMHEALHNHYTQKSLSLSPGK VL: DVVMTQSPLSLPVTPGEPASISCRSSQSLVHSNGNTYLHWYLQKPGQSPQLLIYKVSNRFSGVPDRFSGSGSGTDFTLKISRVEAEDVGVYYCSQNTHVPPTFGQGTKLEIK"
2,binds,"Fc-modified humanized anti-GPC3 antibody V212 (S239D/S298A/I332E) (antibody, human IgG1, also called pC-aGPChl (212)) heavy: QVQLVQSGAEVKKPGASVKVSCKASGYTFTDYEMHWVRQAPGQGLEWMGALDPKTGDTAYSQKFKGRVTLTADKSTSTAYMELSSLTSEDTAVYYCTRFYSYTYWGQGTLVTVSSASTKGPSVFPLAPSSKSTSGGTAALGCLVKDYFPEPVTVSWNSGALTSGVHTFPAVLQSSGLYSLSSVVTVPSSSLGTQTYICNVNHKPSNTKVDKKVEPKSCDKTHTCPPCPAPELLGGPDVFLFPPKPKDTLMISRTPEVTCVVVDVSHEDPEVKFNWYVDGVEVHNAKTKPREEQYNATYRVVSVLTVLHQDWLNGKEYKCKVSNKALPAPEEKTISKAKGQPREPQVYTLPPSRDELTKNQVSLTCLVKGFYPSDIAVEWESNGQPENNYKTTPPVLDSDGSFFLYSKLTVDKSRWQQGNVFSCSVMHEALHNHYTQKSLSLSPGK VL: DVVMTQSPLSLPVTPGEPASISCRSSQSLVHSNGNTYLHWYLQKPGQSPQLLIYKVSNRFSGVPDRFSGSGSGTDFTLKISRVEAEDVGVYYCSQNTHVPPTFGQGTKLEIK"
3,binds,"Fc-modified humanized anti-GPC3 antibody V209 nG1m(1) allotype (S239D/A330L/I332E/D356E/L358M) (antibody, human IgG1, name in EU numbering) heavy: QVQLVQSGAEVKKPGASVKVSCKASGYTFTDYEMHWVRQAPGQGLEWMGALDPKTGDTAYSQKFKGRVTLTADKSTSTAYMELSSLTSEDTAVYYCTRFYSYTYWGQGTLVTVSSASTKGPSVFPLAPSSKSTSGGTAALGCLVKDYFPEPVTVSWNSGALTSGVHTFPAVLQSSGLYSLSSVVTVPSSSLGTQTYICNVNHKPSNTKVDKKVEPKSCDKTHTCPPCPAPELLGGPDVFLFPPKPKDTLMISRTPEVTCVVVDVSHEDPEVKFNWYVDGVEVHNAKTKPREEQYNSTYRVVSVLTVLHQDWLNGKEYKCKVSNKALPLPEEKTISKAKGQPREPQVYTLPPSREEMTKNQVSLTCLVKGFYPSDIAVEWESNGQPENNYKTTPPVLDSDGSFFLYSKLTVDKSRWQQGNVFSCSVMHEALHNHYTQKSLSLSPGK VL: DVVMTQSPLSLPVTPGEPASISCRSSQSLVHSNGNTYLHWYLQKPGQSPQLLIYKVSNRFSGVPDRFSGSGSGTDFTLKISRVEAEDVGVYYCSQNTHVPPTFGQGTKLEIK"
4,binds,"Fc-modified humanized anti-GPC3 antibody V22 (I332E) (antibody, also called pC-aGPChl (22)) heavy: not shown VL: DVVMTQSPLSLPVTPGEPASISCRSSQSLVHSNGNTYLHWYLQKPGQSPQLLIYKVSNRFSGVPDRFSGSGSGTDFTLKISRVEAEDVGVYYCSQNTHVPPTFGQGTKLEIK"
5,binds,"Fc-modified humanized anti-GPC3 antibody V922 (S239D/K326T/I332E) (antibody, human IgG1) heavy: QVQLVQSGAEVKKPGASVKVSCKASGYTFTDYEMHWVRQAPGQGLEWMGALDPKTGDTAYSQKFKGRVTLTADKSTSTAYMELSSLTSEDTAVYYCTRFYSYTYWGQGTLVTVSSASTKGPSVFPLAPSSKSTSGGTAALGCLVKDYFPEPVTVSWNSGALTSGVHTFPAVLQSSGLYSLSSVVTVPSSSLGTQTYICNVNHKPSNTKVDKKVEPKSCDKTHTCPPCPAPELLGGPDVFLFPPKPKDTLMISRTPEVTCVVVDVSHEDPEVKFNWYVDGVEVHNAKTKPREEQYNSTYRVVSVLTVLHQDWLNGKEYKCKVSNTALPAPEEKTISKAKGQPREPQVYTLPPSRDELTKNQVSLTCLVKGFYPSDIAVEWESNGQPENNYKTTPPVLDSDGSFFLYSKLTVDKSRWQQGNVFSCSVMHEALHNHYTQKSLSLSPGK VL: DVVMTQSPLSLPVTPGEPASISCRSSQSLVHSNGNTYLHWYLQKPGQSPQLLIYKVSNRFSGVPDRFSGSGSGTDFTLKISRVEAEDVGVYYCSQNTHVPPTFGQGTKLEIK"
